Test results: patent publication US9969998B2, “Compositions of adenosine deaminase-2 (ADA2), variants thereof and methods of using same” (Halozyme, Inc., priority 2014, dated 2018)
Where two headings read alike, the source gives them in different places.

Experiments:
[1] = cited from earlier work
[2] = system: CT26 murine primary colon carcinoma; experiment: CT26 syngeneic tumor model; set-up: species or system BALB/c mice; conditions: mouse
Experimental: Exemplary of an animal tumor model that can be used to assess the effect of cancer treatment using ADA2 provided herein is the CT26 syngeneic tumor model. This model is created by subcutaneous injection of CT26 murine primary colon carcinoma (ATCC CRL-2638) cells into syngeneic BALB/c mice. The mice are staged until the tumor is established, then the agent used for treatment, such as any ADA2 provided herein or combination therapy including ADA2 treatment, are administered. Another example of an animal tumor model of pancreatic cancer involves the generation of tumors in animals using BxPC-3 pancreatic adenocarcinoma cells (see e.g. Von Hoff et al. (2011) J. Clin. Oncol., 29:4548-54). […]
In other examples, tumor volume can be measured using an average of measurements of tumor diameter (D) obtained by caliper or ultrasound assessments. For example, tumor volume can be determined using VisualSonics Vevo 770 high-resolution ultrasound or other similar ultrasound. The volume can be determined from the formula V=D^3×π/6 (for diameter measured using calipers) or V=D^2×d×π/6 (for diameter measured using ultrasound where d is the depth or thickness). For example, caliper measurements can be made of the tumor length (l) and width (w) and tumor volume calculated as length×width^2×0.52. […] Tumor volumes can be determined by using available software (e.g., Amira 3.1 software; Mercury Computer Systems). […]

NK/T cells = experiment: rHuADA2 rescue of adenosine-mediated inhibition of NK/T cell proliferation; type: cell-based, human
Experimental: A mixture of NK and T cells (NK/T) were prepared from healthy donor's peripheral blood mononuclear cells (PBMC). Briefly, 10×10^7 HumanPBMCs were cultured for 6-7 days in Stem cell growth medium (SCGM; Order No. 20802-0500, CellGenix, Freiburg, Germany) with 5% human serum from donors with blood type AB (human AB serum; Cat. No. 35-060-C1, Mediatech, Mannassas, Va.) in the presence of 20 ng/mL anti-CD3 eBioscience, San Diego, Calif.; Cat. No. 16-0039) and 500 IU/mL recombinant human interleukin 2 (rhIL-2; Cat. No. 200-02, PeproTech, Rocky Hill, N.J.). The cells were then cultured for an additional 2-3 weeks in SCGM in the presence of 500 IU/mL rhIL-2. NK/T cells cultured for 2-4 weeks were used in experiments.
NK/T cells (10,000 cells/well) were plated in 96 well white plates with clear bottoms in a total volume of 180 μL. The cells were treated with 20 μL rHuADA2 at concentrations resulting from 3-fold dilution series, to give a final rHuADA2 concentration of 100 nM, 30 nM, 10 nM, 3 nM, 1 nM, 0.3 nM, 0.1 nM, and 0.03 nm, and then each well also was treated with 20 μL of adenosine at 1 mM. After treatment, the NK/T cells were cultured, processed and luminescence measured as described above. The mean cell survival (%) was determined by comparison of the measured luminescence to control cells not treated with adenosine or rHuADA2.
Experiments also were performed to assess the effect of rHuADA2 to reverse adenosine-mediated inhibition of NK/T cell proliferation at various concentrations of adenosine. The experiments were conducted in a similar manner as described above, with final adenosine concentration of 1 mM, 100, 50, or 25 μM and final rHuADA2 concentration of 100 nM, 30 nM, 10 nM, 3 nM, 1 nM, 0.3 nM, 0.1 nM, and 0.03 nM.

[3] = adenosine deaminase activity; listed as wildtype ADA2; cited from earlier work

B1: ADA2: wild-type human adenosine deaminase 2, mature form SEQ ID NO:5, homodimer (protein, listed as Homo sapiens)
chain: IDETRAHLLLKEKMMRLGGRLVLNTKEELANERLMTLKIAEMKEAMRTLIFPPSMHFFQAKHLIERSQVFNILRMMPKGAALHLHDIGIVTMDWLVRNVTYRPHCHICFTPRGIMQFRFAHPTPRPSEKCSKWILLEDYRKRVQNVTEFDDSLLRNFTLVTQHPEVIYTNQNVVWSKFETIFFTISGLIHYAPVFRDYVFRSMQEFYEDNVLYMEIRARLLPVYELSGEHHDEEWSVKTYQEVAQKFVETHPEFIGIKIIYSDHRSKDVAVIAESIRMAMGLRIKFPTVVAGFDLVGHEDTGHSLHDYKEALMIPAKDGVKLPYFFHAGETDWQGTSIDRNILDALMLNTTRIGHGFALSKHPAVRTYSWKKDIPIEVCPISNQVLKLVSDLRNHPVATLMATGHPMVISSDDPAMFGAKGLSYDFYEVFMGIGGMKADLRTLKQLAMNSIKYSTLLESEKNTFMEIWKKRWDKFIADVATK
modifications: ADA2 mature protein
[1]; for adenosine, wild-type enzyme in humans, read-out: Km
  Km: ~2000 µM
[1]; read-out: Km for adenosine
  Km: ~2250 µM
[2]
  tumor growth in vivo: reduce tumor growth
NK/T cells; ADA2 0.03 nM, 25 μM Adenosine
  MS % (mean survival): 81.7%
NK/T cells; ADA2 0.03 nM, 50 μM Adenosine
  MS % (mean survival): 71.2%
NK/T cells; ADA2 0.03 nM, 100 μM Adenosine
  MS % (mean survival): 45.9%
NK/T cells; ADA2 0.03 nM, 1 mM Adenosine
  MS % (mean survival): 15.6%
NK/T cells; ADA2 0.1 nM, 25 μM Adenosine
  MS % (mean survival): 89.6%
NK/T cells; ADA2 0.1 nM, 50 μM Adenosine
  MS % (mean survival): 76.6%
NK/T cells; ADA2 0.1 nM, 100 μM Adenosine
  MS % (mean survival): 43.8%
NK/T cells; ADA2 0.1 nM, 1 mM Adenosine
  MS % (mean survival): 16.3%
NK/T cells; ADA2 0.3 nM, 25 μM Adenosine
  MS % (mean survival): 90.5%
NK/T cells; ADA2 0.3 nM, 50 μM Adenosine
  MS % (mean survival): 64.8%
NK/T cells; ADA2 0.3 nM, 100 μM Adenosine
  MS % (mean survival): 57.8%
NK/T cells; ADA2 0.3 nM, 1 mM Adenosine
  MS % (mean survival): 18.3%
NK/T cells; ADA2 1 nM, 25 μM Adenosine
  MS % (mean survival): 99.3%
NK/T cells; ADA2 1 nM, 50 μM Adenosine
  MS % (mean survival): 80.2%
NK/T cells; ADA2 1 nM, 100 μM Adenosine
  MS % (mean survival): 71.7%
NK/T cells; ADA2 1 nM, 1 mM Adenosine
  MS % (mean survival): 22.6%
NK/T cells; ADA2 3 nM, 25 μM Adenosine
  MS % (mean survival): 107.4%
NK/T cells; ADA2 3 nM, 50 μM Adenosine
  MS % (mean survival): 94%
NK/T cells; ADA2 3 nM, 100 μM Adenosine
  MS % (mean survival): 91.6%
NK/T cells; ADA2 3 nM, 1 mM Adenosine
  MS % (mean survival): 41.4%
NK/T cells; ADA2 10 nM, 25 μM Adenosine
  MS % (mean survival): 121.2%
NK/T cells; ADA2 10 nM, 50 μM Adenosine
  MS % (mean survival): 105.9%
NK/T cells; ADA2 10 nM, 100 μM Adenosine
  MS % (mean survival): 108.3%
NK/T cells; ADA2 10 nM, 1 mM Adenosine
  MS % (mean survival): 67.1%
NK/T cells; ADA2 30 nM, 25 μM Adenosine
  MS % (mean survival): 117.2%
NK/T cells; ADA2 30 nM, 50 μM Adenosine
  MS % (mean survival): 114.7%
NK/T cells; ADA2 30 nM, 100 μM Adenosine
  MS % (mean survival): 114.4%
NK/T cells; ADA2 30 nM, 1 mM Adenosine
  MS % (mean survival): 79.1%
NK/T cells; ADA2 100 nM, 25 μM Adenosine
  MS % (mean survival): 120.6%
NK/T cells; ADA2 100 nM, 50 μM Adenosine
  MS % (mean survival): 116.9%
NK/T cells; ADA2 100 nM, 100 μM Adenosine
  MS % (mean survival): 109%
NK/T cells; ADA2 100 nM, 1 mM Adenosine
  MS % (mean survival): 96.3%
[3]
  pH optimum: ~6.5
